Measurements as given in patent US20250230251A1 (Bristol-Myers Squibb, published 2025).

Tests used:
[1] = molecular target: T1, human IL-18Rβ on cells (human, UniProt O95256 20-599); experiment: cell-based or functional assay
T1 sequence: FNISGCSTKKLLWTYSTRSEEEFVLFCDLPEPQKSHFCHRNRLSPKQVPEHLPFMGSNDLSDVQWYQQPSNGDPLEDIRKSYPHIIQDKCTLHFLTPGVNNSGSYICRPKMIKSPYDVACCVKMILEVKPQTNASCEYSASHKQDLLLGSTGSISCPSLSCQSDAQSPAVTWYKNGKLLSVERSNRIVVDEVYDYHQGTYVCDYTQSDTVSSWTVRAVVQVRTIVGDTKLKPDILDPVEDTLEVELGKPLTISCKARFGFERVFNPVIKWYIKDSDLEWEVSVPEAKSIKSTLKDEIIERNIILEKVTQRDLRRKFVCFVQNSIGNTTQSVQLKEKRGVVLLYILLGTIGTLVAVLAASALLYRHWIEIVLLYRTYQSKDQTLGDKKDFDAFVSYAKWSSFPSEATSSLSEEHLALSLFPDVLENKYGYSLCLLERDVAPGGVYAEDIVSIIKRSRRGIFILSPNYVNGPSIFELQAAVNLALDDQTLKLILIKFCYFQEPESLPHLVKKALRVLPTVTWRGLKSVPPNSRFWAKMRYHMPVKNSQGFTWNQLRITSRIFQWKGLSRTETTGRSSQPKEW

[2] = molecular target: T1, human IL-18Rβ on cells; experiment: cell-based or functional assay; remark: listed apart in the source
[3] = molecular target: T2, huIL-18Rβ-HisAvi (human, UniProt O95256 20-356, biotinylated in the Octet blocking assay); experiment: SPR T200, mAb on anti-hFc, 37C, pH 5
T2 construct: Soluble analyte in all SPR runs; captured on streptavidin sensors in the Octet assay; also called human IL-18Rβ; human IL-18Rβ-Avi-His
T2 sequence: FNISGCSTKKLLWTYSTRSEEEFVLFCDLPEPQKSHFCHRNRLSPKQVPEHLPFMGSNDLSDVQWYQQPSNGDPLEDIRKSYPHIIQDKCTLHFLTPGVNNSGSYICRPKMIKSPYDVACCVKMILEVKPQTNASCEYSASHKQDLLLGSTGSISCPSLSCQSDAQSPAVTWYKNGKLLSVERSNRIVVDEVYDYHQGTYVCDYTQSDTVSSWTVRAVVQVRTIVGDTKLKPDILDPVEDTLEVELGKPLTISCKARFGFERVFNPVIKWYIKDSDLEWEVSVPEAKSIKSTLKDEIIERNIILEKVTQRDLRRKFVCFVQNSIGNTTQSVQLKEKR

[4] = molecular target: T2, huIL-18Rβ-HisAvi; experiment: SPR T200, mAb on anti-hFc, 37C, pH 7.4
[5] = molecular target: T2, huIL-18Rβ-HisAvi; experiment: SPR T200, mAb on anti-hFc, 37C, pH 7.4; remark: listed apart in the source
[6] = molecular target: T3, cyIL-18Rβ-HisAvi (cynomolgus monkey); experiment: SPR T200, mAb on anti-hFc, 37C, pH 7.4
T3 construct: Soluble analyte in SPR; also called cyno IL-18Rβ; cynomolgus monkey IL-18Rβ
T3 chain: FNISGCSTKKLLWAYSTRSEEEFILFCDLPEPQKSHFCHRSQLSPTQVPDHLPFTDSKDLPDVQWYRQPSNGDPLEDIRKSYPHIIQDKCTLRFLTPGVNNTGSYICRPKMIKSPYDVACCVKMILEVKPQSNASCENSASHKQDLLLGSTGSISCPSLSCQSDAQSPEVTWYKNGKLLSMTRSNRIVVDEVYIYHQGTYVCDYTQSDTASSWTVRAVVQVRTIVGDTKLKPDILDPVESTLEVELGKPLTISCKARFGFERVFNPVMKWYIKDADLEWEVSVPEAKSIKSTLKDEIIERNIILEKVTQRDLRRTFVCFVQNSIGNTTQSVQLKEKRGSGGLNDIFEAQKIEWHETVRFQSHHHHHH

[7] = molecular target: T2, huIL-18Rβ-HisAvi; experiment: SPR T200, pH 7.4; sample stored at pH 6, T0
[8] = molecular target: T2, huIL-18Rβ-HisAvi; experiment: SPR T200, pH 7.4; sample stored at pH 8, 4 w 40C
[9] = molecular target: T2, huIL-18Rβ-HisAvi; experiment: SPR T200, mAb on anti-hFc, 37C, pH 7.4; pH 7.4
[10] = molecular target: T1, human IL-18Rβ on cells; experiment: cell-based or functional assay; remark: listed apart in the source
[11] = molecular target: T1, human IL-18Rβ on cells; experiment: cell-based or functional assay; remark: listed apart in the source
[12] = molecular target: T2, huIL-18Rβ-HisAvi; experiment: SPR T200, pH 7; sample T0
[13] = molecular target: T2, huIL-18Rβ-HisAvi; experiment: SPR T200, pH 7; sample 4 w 4C

B1: P21 (antibody, human IgG1, kappa, V domains shown)
VH: QVQLQQSGPGLVKPSETLSLTCTVSGGSISNYYWTWIRQPPGKGLEWIGYISDSGSTNYNPSLKSRVTISVDTSKNQFSLKLSSVTAADTAVYYCARETIVVRGFYFYVMDVWGQGTTVTVSS
VL: AIQLTQSPSSLSASVGDRVTITCRASQGISSALAWYQQRPGKAPKLLIYDASNWESGVPSRFSGSGSGTDFTLTISSLQPEDFATYYCQQFNSYPWTFGQGTKVEIKR
notes: Human IgG
- IC50, IL-18-induced IFNγ release, KG-1 cells [1]: 0.7 nM
- IC50, LPS+IL-12 dependent IFNg production, human whole blood [2]: 0.3 nM
- y-max, LPS+IL-12 dependent IFNg production, human whole blood [2]: 98%
- Kd [3]: 2.5 nM
- koff [3]: 0.0004 s⁻¹
- kon [3]: 160000 M⁻¹ s⁻¹
- Kd [4]: 2.3 nM
- koff [4]: 0.0005 s⁻¹
- kon [4]: 220000 M⁻¹ s⁻¹
- Kd [5]: 1.8 nM
- koff [5]: 0.00043 s⁻¹
- kon [5]: 240000 M⁻¹ s⁻¹
- Kd [6]: 19 nM
- koff [6]: 0.0029 s⁻¹
- kon [6]: 150000 M⁻¹ s⁻¹
- Kd [7]: 1.6 nM
- koff [7]: 0.00038 s⁻¹
- kon [7]: 240000 M⁻¹ s⁻¹
- Kd [8]: 1.9 nM
- koff [8]: 0.0005 s⁻¹
- kon [8]: 260000 M⁻¹ s⁻¹

B2: P20 (antibody, human IgG1, kappa)
heavy: QVQLQQSGPGLVKPSETLSLTCTVSGGSINNYYWSWIRQPPGKGLEWIGYIFYSGTTNYNPSLKSRVTISVDTSKNQFSLKLSSVTAADTAVYYCARDVGIAARNSYYYVMDVWGQGTTVTVSSASTKGPSVFPLAPSSKSTSGGTAALGCLVKDYFPEPVTVSWNSGALTSGVHTFPAVLQSSGLYSLSSVVTVPSSSLGTQTYICNVNHKPSNTKVDKRVEPKSCDKTHTCPPCPAPEAEGAPSVFLFPPKPKDTLMISRTPEVTCVVVDVSHEDPEVKFNWYVDGVEVHNAKTKPREEQYNSTYRVVSVLTVLHQDWLNGKEYKCKVSNKALPAPIEKTISKAKGQPREPQVYTLPPSREEMTKNQVSLTCLVKGFYPSDIAVEWESNGQPENNYKTTPPVLDSDGSFFLYSKLTVDKSRWQQGNVFSCSVMHEALHNHYTQKSLSLSPG
light: AIQLTQSPSSLSASVGDRVTITCRASQGISSALAWYQQKPGKAPKFLIYDASSLESGVPSRFSGSGSGTDFTLTISSLQPEDFATYYCQQFNSYPITFGQGTRLEIKRTVAAPSVFIFPPSDEQLKSGTASVVCLLNNFYPREAKVQWKVDNALQSGNSQESVTEQDSKDSTYSLSSTLTLSKADYEKHKVYACEVTHQGLSSPVTKSFNRGEC
notes: Human IgG
- IC50, IL-18-induced IFNγ release, KG-1 cells [1]: 0.2 nM
- IC50, LPS+IL-12 dependent IFNg production, human whole blood [2]: 0.7 nM
- y-max, LPS+IL-12 dependent IFNg production, human whole blood [2]: 98%
- apparent Kd (pooled screen) [3]: 2 nM
- apparent koff (pooled screen) [3]: 0.00021 s⁻¹
- apparent kon (pooled screen) [3]: 100000 M⁻¹ s⁻¹
- apparent Kd (pooled screen) [4]: 1.8 nM
- apparent koff (pooled screen) [4]: 0.00032 s⁻¹
- apparent kon (pooled screen) [4]: 180000 M⁻¹ s⁻¹
- apparent Kd (pooled screen) [5]: 0.51 nM
- apparent koff (pooled screen) [5]: 0.00017 s⁻¹
- apparent kon (pooled screen) [5]: 330000 M⁻¹ s⁻¹
- Kd [6]: 1.4 nM
- koff [6]: 0.00024 s⁻¹
- kon [6]: 180000 M⁻¹ s⁻¹
- apparent Kd (pooled screen) [7]: 1.4 nM
- apparent koff (pooled screen) [7]: 0.00033 s⁻¹
- apparent kon (pooled screen) [7]: 230000 M⁻¹ s⁻¹
- apparent kon (pooled screen) [9]: 330000 M⁻¹ s⁻¹
- apparent Kd (pooled screen) [8]: 1.6 nM
- apparent koff (pooled screen) [8]: 0.00038 s⁻¹
- apparent kon (pooled screen) [8]: 240000 M⁻¹ s⁻¹

B3: P20-V1 (antibody, human IgG1, kappa, V domains shown)
VH: QVQLQESGPGLVKPSETLSLTCTVSGGSINNYYWSWIRQPPGKGLEWIGYIFYSGTTNYNPSLKSRVTISVDTSKNQFSLKLSSVTAADTAVYYCARDVGIAARNSYYYVMDVWGQGTTVTVSS
VL: AIQLTQSPSSLSASVGDRVTITCRASQGISSALAWYQQKPGKAPKFLIYEASSLESGVPSRFSGSGSGTDFTLTISSLQPEDFATYYCQQFNSYPITFGQGTRLEIKR
notes: Variant of P20
- Average IC50, LPS+IL-12 dependent IFNg production, human whole blood [10]: 1.04 nM
- IC50, IFNg, human whole blood LPS+IL-12, Average [11]: 1.6 nM
- IC50, IFNg, human whole blood LPS+IL-12, donor C163 [11]: 1.1 nM
- IC50, IFNg, human whole blood LPS+IL-12, donor C175 [11]: 1.48 nM
- IC50, IFNg, human whole blood LPS+IL-12, donor C177 [11]: 0.47 nM
- IC50, IFNg, human whole blood LPS+IL-12, donor C198 [11]: 4.9 nM
- IC50, IFNg, human whole blood LPS+IL-12, donor C200 [11]: 2.55 nM
- IC50, IFNg, human whole blood LPS+IL-12, donor C205 [11]: 1.56 nM
- IC50, IFNg, human whole blood LPS+IL-12, donor C215 [11]: 1.54 nM
- IC50, IFNg, human whole blood LPS+IL-12, donor C223 [11]: 0.83 nM
- IC50, IFNg, human whole blood LPS+IL-12, donor C229 [11]: 1.3 nM
- IC50, IFNg, human whole blood LPS+IL-12, donor C238 [11]: 0.57 nM
- IC50, IFNg, human whole blood LPS+IL-12, donor C241 [11]: 1.2 nM
- IC50, IFNg, human whole blood LPS+IL-12, donor C245 [11]: 1.22 nM
- IC50, IFNg, human whole blood LPS+IL-12, donor C251 [11]: 1.7 nM
- IC50, IFNg, human whole blood LPS+IL-12, donor C256 [11]: 1.38 nM
- IC50, IFNg, human whole blood LPS+IL-12, donor C257 [11]: 2.22 nM
- Kd [12]: 0.27 nM
- koff [12]: 7.2e-05 s⁻¹
- kon [12]: 270000 M⁻¹ s⁻¹
- Kd [13]: 0.2 nM
- koff [13]: 5.7e-05 s⁻¹
- kon [13]: 280000 M⁻¹ s⁻¹
